Results taken from patent publication US20210032330A1.
Substitutions are numbered along the chain they refer to.

B1: anti-TIM-3 monoclonal antibody 10-M21-A (antibody, V domains shown)
VH: DVQLQESGPTLVKPSQTLSLTCSVTGDSITSGYWNWIRKFPGNKLEYMGYISYSGSTYYNPSLKSRISIIRDTSKNQYYLQLNSVTTEDTATYYCVSGNHFDYWGQGTTLTVSS
VL: DIQMTQSPSSLSASLGGKVTITCKASQDINRYIAWYQHKPGKGPRLLIHYTSTLQPGIPSRFSGSGSGRDYSFSISNLEPEDIATYYCLQYDNLLFTFGSGTKLEIK
B2: anti-TIM-3 monoclonal antibody 16-L3-A (antibody, V domains shown)
VH: QVQLQQSGPELVKPGASVKMSCKASGYTFTSYYIHWVKQRPGQGLEWIGWIYPGDGSTKYNEKFKGKTTLTADKSSSTAYMLLSSLTSEDSAIYFCATDRYDVAYWGQGTLVTVSA
VL: EIVLTQSPALMAASPGEKVTITCSVSSSISSSNLHWYQQKSETSPKPWIYGTSNLASGVPVRFSGSGSGTSYSLTISSMEAEDAATYYCQQWSSYPLTFGAGTKLELK
B3: anti-TIM-3 monoclonal antibody 6-I13-A (antibody, V domains shown)
VH: EVQLQQSGPELEKPGASVKISCKASGYSFTGYNMNWVKQSNGKSLEWIGNIDPYYGVTSYNQKFKGKATLTVDKSSSTAYMQLKSLTSEDSAVYYCASYSLTYDGYYPFAYWGQGTLVTVSA
VL: DIVLTQSPASLAVSLGQRATISCRASKSVSTSGYSYMHWYQQKPGQPPKLLIYLASNLESGVPARFSGSGSGTDFTLNIHPVEEEDAATYYCQHSRELPYTFGGGTKLEIK
B4: anti-TIM-3 monoclonal antibody 10-O15-A (antibody, V domains shown)
VH: QVQLQQSGADLVRPGASVKLSCKALGYTFTDYEMHWVKQTPVHGLEWIGAIHPGSGGTAYNQKFKGKATLTADKSSSTAYMELSSLTSEDSAVYFCSRSYYRYTGYFDVWGAGTTVTVSS
VL: B3 VL with T31A, I79V, Y100F, G104S
B5: anti-TIM-3 monoclonal antibody 18-N1-A (antibody, V domains shown)
VH: QVQLQQPGAELVRPGVSVKLSCKASGYTFTSYWMHWIKQRPEQGLERIGEINPSNGGTNYNEKFKNKATLTVDKSSSTAYMQLSSLTSEDSAVYYCARSYYTYDAIDYWGQGTSVTVSS
VL: DIVMSQSPSSLAVSAGEKVTMSCKSSQSLLNSRTRKNYLAWYQQKPGQSPKLLIYWASTRESGVPDRFTGSGSGTDFTLTISSVQAEDLAVYYCKQSYNLYTFGGGTKLEIK
B6: anti-TIM-3 monoclonal antibody 16-K5-A (antibody, V domains shown)
VH: QVQLQQSGAELVKPGASVKLSCKASGYTFTSSDINWVRQRPEQGLEWIGWIFPGDGSTKYNEKFKGKATLTTDKSSSTAYMQLSRLTSEDSAVYFCARGLDYWGQGTTLTVSS
VL: DIKMTQSPSSMYASLGERVTITCKASQDINSYLGWFQQKPGKSPKTLIYRADRLVDGVPSRFSGSGSGQDYSLTISSLEYEDMGIYYCLQYDEFPLTFGAGTKLELK
B7: anti-TIM-3 monoclonal antibody 5-K4-A (antibody, V domains shown)
VH: EVQLQQSGPELVKTGASVKISCKASGYSFTAYYIHWVKQSHGKSLEWIGHISCFNGATSYNQKFKGKATFTVDTSSSTAYMQFNSLTSEDSAVYYCARRGDFDRPEFAYWGQGTLVTVSA
VL: DIVLTQSPASLAVSLGQRATISCRASESVEYYGTSLMQWYQQKPGQPPKLLIYAASNVESGVPARFSGSGSGTDFSLNIHPVEEDDIAMYFCQQSRKVPWTFGGGTKLEIK

target: cynomolgus TIM-3 (cynomolgus); assay: BLI (OCTET Red96), mAb on anti-mouse Fc biosensor, antigen in solution, 1:1 model

Q: Which Kd does the source give for B1 here?
A: Its Kd is 7.5 nM.

Q: How did the Kd turn out when B2 was run?
A: Its Kd is 6.5 nM.

Q: Which Kd does the source give for B3 here?
A: The Kd was 5.2 nM.

Q: B4 was tested. Which Kd did it give?
A: The Kd was 2.9 nM.

Q: B5 was tested. Which Kd did it give?
A: The Kd was 14 nM.

Q: How did the Kd turn out when B6 was run?
A: The Kd was 6.4 nM.

Q: B7 was tested. Which Kd did it give?
A: The Kd was 6.7 nM.
